In the supplement of paper PMC9233669:
Fewer inactive variants are shown than the library holds.

Columns and labels:
biotinyl-Phe-oxazolone = experiment: self-aminoacylation, catalytic enhancement (BFO) (fold over background); higher = more active; k-Seq, kA / k0A0; sequences stand for … in GGGAAUGGAUCCACAUCUACGAAUUC…UUCACUGCAGACUUGACGAAGCUG
Summary of the method: (§1)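 The uncatalyzed rate is the low-activity peak of a bimodal Gaussian fit, and catalytic enhancement is median kA divided by it. The kA values came from pseudo-first-order fits, with 1000 bootstraps, of per-sequence fraction reacted measured by streptavidin capture, triplicate qPCR and Illumina sequencing. Mutagenized RNA pools with a 21-nt variable region (0.43 μM) were reacted with each biotinyl-aminoacyl-oxazolone at 2–1250 μM in 50 μL HEPES/NaCl/KCl/MgCl2/CaCl2 buffer with 5% acetonitrile, pH 6.9–7.0, for 90 minutes at room temperature.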

biotinyl-Ile-oxazolone = experiment: self-aminoacylation, catalytic enhancement (BIO) (fold over background); higher = more active; k-Seq, kA / k0A0; sequences stand for … in GGGAAUGGAUCCACAUCUACGAAUUC…UUCACUGCAGACUUGACGAAGCUG
Summary of the method: as §1

biotinyl-Met-oxazolone = experiment: self-aminoacylation, catalytic enhancement (BMO) (fold over background); higher = more active; k-Seq, kA / k0A0; sequences stand for … in GGGAAUGGAUCCACAUCUACGAAUUC…UUCACUGCAGACUUGACGAAGCUG
Summary of the method: as §1

biotinyl-Leu-oxazolone = experiment: self-aminoacylation, catalytic enhancement (BLO) (fold over background); higher = more active; k-Seq, kA / k0A0; sequences stand for … in GGGAAUGGAUCCACAUCUACGAAUUC…UUCACUGCAGACUUGACGAAGCUG
Summary of the method: as §1

biotinyl-Trp-oxazolone = experiment: self-aminoacylation, catalytic enhancement (BWO) (fold over background); higher = more active; k-Seq, kA / k0A0; sequences stand for … in GGGAAUGGAUCCACAUCUACGAAUUC…UUCACUGCAGACUUGACGAAGCUG
Summary of the method: as §1

biotinyl-Val-oxazolone = experiment: self-aminoacylation, catalytic enhancement (BVO) (fold over background); higher = more active; k-Seq, kA / k0A0; sequences stand for … in GGGAAUGGAUCCACAUCUACGAAUUC…UUCACUGCAGACUUGACGAAGCUG
Summary of the method: as §1

| Sequence | self-aminoacylation (biotinyl-Phe-oxazolone) | self-aminoacylation (biotinyl-Ile-oxazolone) | self-aminoacylation (biotinyl-Met-oxazolone) | self-aminoacylation (biotinyl-Leu-oxazolone) | self-aminoacylation (biotinyl-Trp-oxazolone) | self-aminoacylation (biotinyl-Val-oxazolone) |
| --- | --- | --- | --- | --- | --- | --- |
| AUUCACCUAGGGCAUCGGUUG [Fam2.2 aminoacylation ribozyme variant] | 0.577 | 1.02 | 1.05 | 1.12 | 0.909 | 0.969 |
| AAGUGUGCUAAUAGUCCCAAG [Fam3.1 aminoacylation ribozyme variant] | 3.77 | 1.34 | 1.17 | 1.24 | 2.02 | 1.28 |
| AUUACCCUGGACAUGGAGUGA [Fam2.1 aminoacylation ribozyme variant] | 57.2 | 3.74 | 8.57 | 9.2 | 10.6 | 3.69 |
| CGACACAUCAAGCAAUCGGUC [Fam1B.1 aminoacylation ribozyme variant] | 1.47 | 1.01 | 0.811 | 1.09 | 0.828 | 1.13 |
| AAGUUUGCUAAAAGUCGCAGG [Fam3.1 aminoacylation ribozyme variant] | 1.77 | 1.26 | 1.37 | 1.07 | 1.3 | 1.12 |
| CCUCACUUCAAGCAAUCGGCC [Fam1B.1 aminoacylation ribozyme variant] | 5.49 | 1.9 | 1.53 | 1.59 | 5.38 | 2.39 |
| CUAGUACAAACAAUCGGUCUG [Fam1A.1 aminoacylation ribozyme variant] | 0.781 | 0.837 | 0.725 | 0.802 | 0.572 | 0.775 |
| AUUCACCUAAGUCAGCGGGUG [Fam2.2 aminoacylation ribozyme variant] | 25 | 3.01 | 3.78 | 5.01 | 2.8 | 2.88 |
| CCACAUUUCAAGCAACCGGUC [Fam1B.1 aminoacylation ribozyme variant] | 1.11 | 1.53 | 1.09 | 1.11 | 1.34 | 1.64 |
| AAGUUUGUUAGUAGUCGCAAG [Fam3.1 aminoacylation ribozyme variant] | 1.02 | 0.852 | 0.841 | 1.06 | 0.675 | 0.823 |
| ACACACUUCAAGCACUCGGUC [Fam1B.1 aminoacylation ribozyme variant] | 1.49 | 1.44 | 1.42 | 1.62 | 1.77 | 1.3 |
| CUACUUCAAUCACUCGGUCUG [Fam1A.1 aminoacylation ribozyme variant] | 0.649 | 0.866 | 0.68 | 0.746 | 0.688 | 0.835 |
| ACGUUUGCUAAGAGUCGCAAG [Fam3.1 aminoacylation ribozyme variant] | 2.95 | 1.35 | 1.12 | 1.65 | 1.44 | 1.44 |
| AUGUUAGCUAAUAGUCGCAAG [Fam3.1 aminoacylation ribozyme variant] | 1.84 | 1.57 | 1.45 | 1.39 | 0.993 | 1.29 |
| CCAUACAUCAAGCAAUCGGUC [Fam1B.1 aminoacylation ribozyme variant] | 1.06 | 1.04 | 0.792 | 0.841 | 0.687 | 0.981 |
| CCAAACUUUAAGCAAUCGGUC [Fam1B.1 aminoacylation ribozyme variant] | 0.824 | 1.11 | 0.869 | 0.846 | 0.664 | 0.993 |
| AAUUUUGCUAACAGUCGCAAG [Fam3.1 aminoacylation ribozyme variant] | 3.07 | 1.88 | 1.28 | 1.87 | 1.88 | 1.58 |
| AUUACCCUGGUCAUAUAGUGA [Fam2.1 aminoacylation ribozyme variant] | 69.1 | 5.04 | 11.2 | 10.7 | 12.4 | 5.51 |
| ACACACUUCAGGCAAUCGGUC [Fam1B.1 aminoacylation ribozyme variant] | 1.75 | 1.56 | 1.38 | 1.42 | 1.84 | 1.44 |
| CCACACUUCAAGCAAACGGUG [Fam1B.1 aminoacylation ribozyme variant] | 10.7 | 3.12 | 3.91 | 5.1 | 4.31 | 3.33 |
| CCACGUCAAACAAUCGGUCUG [Fam1A.1 aminoacylation ribozyme variant] | 2.2 | 1.89 | 1.75 | 1.36 | 2.31 | 1.95 |
| AUGCACCUAGGACAUCGGGUG [Fam2.2 aminoacylation ribozyme variant] | 19.4 | 3.37 | 3.57 | 4.43 | 5.58 | 2.54 |
| AAGUUUUCUGAUAGUCGCAAG [Fam3.1 aminoacylation ribozyme variant] | 2.8 | 1.77 | 1.56 | 1.55 | 1.81 | 1.38 |
| AUUACCCUGAUCAUCGAGUAA [Fam2.1 aminoacylation ribozyme variant] | 1.09 | 1.25 | 1.33 | 1.02 | 0.877 | 1.32 |
| CGACGUCAAACAAUCGGUCUG [Fam1A.1 aminoacylation ribozyme variant] | 4.02 | 1.25 | 1.84 | 1.24 | 1.82 | 1.66 |
| CUAGUUCAAACAAUCGCUCUG [Fam1A.1 aminoacylation ribozyme variant] | 0.847 | 0.832 | 0.827 | 0.798 | 0.844 | 0.934 |

| Sequence | self-aminoacylation (biotinyl-Phe-oxazolone) | self-aminoacylation (biotinyl-Ile-oxazolone) | self-aminoacylation (biotinyl-Met-oxazolone) | self-aminoacylation (biotinyl-Leu-oxazolone) | self-aminoacylation (biotinyl-Trp-oxazolone) | self-aminoacylation (biotinyl-Val-oxazolone) |
| --- | --- | --- | --- | --- | --- | --- |
| CUAGUUCAAACAAUCGGUCAG [Fam1A.1 aminoacylation ribozyme variant] | 2.03 | 0.714 | 0.731 | 0.692 | 1.2 | 0.753 |
| AUUACCCUGGUAAUCGAGAGA [Fam2.1 aminoacylation ribozyme variant] | 0.58 | 1.02 | 0.722 | 0.723 | 0.573 | 0.78 |
| AUUACCCUGGUCUCCGAGUGA [Fam2.1 aminoacylation ribozyme variant] | 64.4 | 3.95 | 7.41 | 8.91 | 9.46 | 4.33 |
| CUACUUCAAACAAAGGGUCUG [Fam1A.1 aminoacylation ribozyme variant] | 0.589 | 0.756 | 0.763 | 0.567 | 0.669 | 0.724 |
| AUUCCCCUAGGACAUCGGGUG [Fam2.2 aminoacylation ribozyme variant] | 44.8 | 6.12 | 7.14 | 9.47 | 8.25 | 6.82 |
| CUACUUCAAACAAUCGAACUG [Fam1A.1 aminoacylation ribozyme variant] | 0.805 | 0.683 | 0.617 | 0.595 | 0.468 | 0.595 |
| AUUACCCUGGUCAUCGAUAGA [Fam2.1 aminoacylation ribozyme variant] | 0.5 | 0.721 | 0.638 | 0.537 | 1.23 | 0.77 |
| CCACACUUCAUGCAACCGGUC [Fam1B.1 aminoacylation ribozyme variant] | 0.916 | 0.996 | 0.943 | 0.795 | 0.752 | 0.981 |
| CUACUUUAGACAAUCGGUCUG [Fam1A.1 aminoacylation ribozyme variant] | 0.65 | 0.77 | 0.847 | 0.7 | 0.518 | 0.826 |
| UUACUUCAAACAACCGGUCUG [Fam1A.1 aminoacylation ribozyme variant] | 1.38 | 1.36 | 1.03 | 1.22 | 1.51 | 1.15 |
| AUUACCCUGGUUAUCGAGUAA [Fam2.1 aminoacylation ribozyme variant] | 1.44 | 1.31 | 1.44 | 1.32 | 1.89 | 1.24 |
| AUUCUCCUAGGUCAUCGGGUU [Fam2.2 aminoacylation ribozyme variant] | 14.8 | 3.08 | 3.79 | 4.14 | 3.6 | 3.07 |
| AUAUUUGCUAAUAGUCGCAAG [Fam3.1 aminoacylation ribozyme variant] | 2.04 | 1.57 | 1.35 | 1.37 | 1.75 | 1.49 |
| AUUCACCUAGGUCAUCCAGUG [Fam2.2 aminoacylation ribozyme variant] | 52 | 5.19 | 7.78 | 9.68 | 6.96 | 4.21 |
| CCACAGUUCAAGCAGUCGGUC [Fam1B.1 aminoacylation ribozyme variant] | 0.63 | 0.937 | 1.01 | 1.04 | 0.757 | 1.2 |
| GUACUUCAAACACUCGGUCUG [Fam1A.1 aminoacylation ribozyme variant] | 5.9 | 1.5 | 1.31 | 1.64 | 1.91 | 1.3 |
| ACACACUUCCAGCAAUCGGUC [Fam1B.1 aminoacylation ribozyme variant] | 1.19 | 1.47 | 1.31 | 1.3 | 1.6 | 1.3 |
| AUUUACCGAGGUCAUCGGGUG [Fam2.2 aminoacylation ribozyme variant] | 64.7 | 4.97 | 8.5 | 11.1 | 6.88 | 4.5 |
| CCACACUCCCAGCAAUCGGUC [Fam1B.1 aminoacylation ribozyme variant] | 0.634 | 1.65 | 1.41 | 1.6 | 1.02 | 1.59 |
| AAGUUUGCUAAUAGGCGGAAG [Fam3.1 aminoacylation ribozyme variant] | 0.916 | 0.806 | 0.721 | 0.675 | 0.922 | 0.89 |
| AUUAGCCCGGUCAUCGAGUGA [Fam2.1 aminoacylation ribozyme variant] | 55.9 | 3.45 | 6.23 | 6.64 | 7.74 | 3.57 |
| CCACAGUUCAAGCAAUCGGUA [Fam1B.1 aminoacylation ribozyme variant] | 0.787 | 1.08 | 1.28 | 1.01 | 0.707 | 1.13 |
| AUUCUCCUAGGUGAUCGGGUG [Fam2.2 aminoacylation ribozyme variant] | 26.4 | 3.17 | 3.62 | 4.94 | 4.65 | 3.62 |
| UCACACUUCAUGCAAUCGGUC [Fam1B.1 aminoacylation ribozyme variant] | 0.632 | 0.85 | 0.793 | 0.736 | 0.656 | 0.887 |
| CAACUUCCAACAAUCGGUCUG [Fam1A.1 aminoacylation ribozyme variant] | 1.69 | 1.13 | 1.15 | 0.985 | 1.14 | 0.929 |
